In publication PMC9482650, “Quantitative fragmentomics allow affinity mapping of interactomes” (Nature Communications, 2022):

Tests used:
Assay in all cases: holdup assay
Parameters in all cases: key: below the threshold = too weak to quantify, mostly under pKd 3.1 to 4
[1] = target: LAP2, Q96RT1
[2] = target: GRIP2_3, Q9C0E4
[3] = target: DLG4_1, P78352
[4] = target: T1, NHERF3_3, Q5T2W1
T1 sequence (Q5T2W1 238-333, limits assumed, looked up): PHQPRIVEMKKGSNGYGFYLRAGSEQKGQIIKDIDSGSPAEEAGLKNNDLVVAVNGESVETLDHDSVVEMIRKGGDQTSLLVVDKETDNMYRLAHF

[5] = target: LIMK2, P53671
[6] = target: DLG1_3, Q12959
[7] = target: CASK, O14936
[8] = target: T2, APBA1_2, Q02410
T2 sequence (Q02410 742-832, limits assumed, looked up): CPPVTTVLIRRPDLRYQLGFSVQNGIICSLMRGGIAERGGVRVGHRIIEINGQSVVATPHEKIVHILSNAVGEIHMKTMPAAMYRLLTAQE

[9] = target: Inadl_4, Q8NI35
[10] = target: GRIP2_6, Q9C0E4
[11] = target: NHERF4_2, Q86UT5
[12] = target: NHERF2_2, Q15599
[13] = target: T3, PDZD7_3, Q9H5P4
T3 sequence (Q9H5P4 857-944, limits assumed, looked up): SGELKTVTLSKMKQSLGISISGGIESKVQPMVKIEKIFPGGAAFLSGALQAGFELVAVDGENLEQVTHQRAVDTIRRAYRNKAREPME

[14] = target: T4, NHERF3_1, Q5T2W1
T4 sequence (Q5T2W1 4-100, limits assumed, looked up): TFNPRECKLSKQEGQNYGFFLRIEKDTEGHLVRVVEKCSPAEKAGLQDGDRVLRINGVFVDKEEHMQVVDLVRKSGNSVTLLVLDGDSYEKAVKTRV

[15] = target: FRMPD3, Q5JV73
[16] = target: LNX1_1, Q8TBB1
[17] = target: FRMPD2_3, Q68DX3
[18] = target: T5, APBA3_1, O96018
T5 sequence (O96018 389-490, limits assumed, looked up): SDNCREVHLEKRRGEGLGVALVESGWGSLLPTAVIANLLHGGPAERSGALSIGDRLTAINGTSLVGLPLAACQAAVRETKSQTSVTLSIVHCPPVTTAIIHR

[19] = target: T6, LNX2_3, Q8N448
T6 sequence (Q8N448 463-564, limits assumed, looked up): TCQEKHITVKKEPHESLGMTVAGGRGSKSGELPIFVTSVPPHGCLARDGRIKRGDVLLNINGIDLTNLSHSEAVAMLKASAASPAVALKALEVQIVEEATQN

[20] = target: GOPC, Q9HD26
[21] = target: T7, LRRC7, Q96NW7
T7 sequence (Q96NW7 1440-1537, limits assumed, looked up): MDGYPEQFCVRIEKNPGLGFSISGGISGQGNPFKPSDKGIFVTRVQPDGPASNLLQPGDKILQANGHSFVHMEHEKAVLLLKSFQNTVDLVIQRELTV

[22] = target: T8, SHANK1, Q9Y566
T8 sequence (Q9Y566 658-767, limits assumed, looked up): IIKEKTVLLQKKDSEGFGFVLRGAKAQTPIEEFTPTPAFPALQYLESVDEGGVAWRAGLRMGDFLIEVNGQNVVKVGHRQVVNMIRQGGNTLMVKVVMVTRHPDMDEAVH

[23] = target: Inadl_8, Q8NI35
[24] = target: TJP2_1, Q9UDY2
[25] = target: T9, DLG3_3, Q92796
T9 sequence (Q92796 374-475, limits assumed, looked up): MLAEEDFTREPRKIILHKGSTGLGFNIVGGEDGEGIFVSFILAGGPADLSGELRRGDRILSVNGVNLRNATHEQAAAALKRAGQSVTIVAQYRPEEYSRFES

[26] = target: T10, TJP3_3, O95049
T10 sequence (O95049 375-456, limits assumed, looked up): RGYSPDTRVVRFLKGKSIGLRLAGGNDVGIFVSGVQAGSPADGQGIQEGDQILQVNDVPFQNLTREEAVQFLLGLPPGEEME

[27] = target: T11, RHPN1, Q8TCX5
T11 sequence (Q8TCX5 508-602, limits assumed, looked up): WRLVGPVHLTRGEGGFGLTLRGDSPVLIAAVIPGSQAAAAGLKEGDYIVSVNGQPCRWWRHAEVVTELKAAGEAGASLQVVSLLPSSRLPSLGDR

[28] = plain residues with an end cap or a label only (N-terminal biotin on a linker: none)
[29] = plain residues with an end cap or a label only (N-terminal biotin on a linker: gsgsgs; C-terminal amide)

Chain of LIMK2, P53671 (P53671 143-248): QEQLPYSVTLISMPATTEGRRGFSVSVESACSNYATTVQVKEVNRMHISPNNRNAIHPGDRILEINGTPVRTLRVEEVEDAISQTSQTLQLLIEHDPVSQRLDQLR
Chain of FRMPD2_3, Q68DX3 (Q68DX3 1073-1166): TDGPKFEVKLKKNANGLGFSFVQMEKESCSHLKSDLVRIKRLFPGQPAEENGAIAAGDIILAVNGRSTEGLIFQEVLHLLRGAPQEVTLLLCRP
Chain of FRMPD3, Q5JV73 (Q5JV73 12-100): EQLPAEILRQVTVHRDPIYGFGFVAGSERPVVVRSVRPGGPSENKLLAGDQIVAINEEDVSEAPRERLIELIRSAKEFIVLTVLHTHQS
Chain of NHERF2_2, Q15599 (Q15599 142-238): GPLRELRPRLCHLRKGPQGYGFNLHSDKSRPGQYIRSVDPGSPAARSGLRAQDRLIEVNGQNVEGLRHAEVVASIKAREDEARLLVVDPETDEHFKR
Chain of DLG4_1, P78352 (P78352 62-152): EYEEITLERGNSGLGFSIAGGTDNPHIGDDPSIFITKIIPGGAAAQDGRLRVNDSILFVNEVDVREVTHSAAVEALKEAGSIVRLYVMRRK
Chain of NHERF4_2, Q86UT5 (Q86UT5 220-308): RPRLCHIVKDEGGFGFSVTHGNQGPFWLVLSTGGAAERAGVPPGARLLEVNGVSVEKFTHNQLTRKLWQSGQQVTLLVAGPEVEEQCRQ
Chain of GRIP2_3, Q9C0E4 (Q9C0E4 238-339): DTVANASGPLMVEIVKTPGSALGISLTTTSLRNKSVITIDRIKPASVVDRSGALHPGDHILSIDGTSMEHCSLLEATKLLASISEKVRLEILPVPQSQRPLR
Chain of LNX1_1, Q8TBB1 (Q8TBB1 261-371): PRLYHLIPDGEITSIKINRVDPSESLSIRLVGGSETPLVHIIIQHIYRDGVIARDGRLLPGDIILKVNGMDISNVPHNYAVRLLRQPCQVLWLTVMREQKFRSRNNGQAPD
Chain of GRIP2_6, Q9C0E4 (Q9C0E4 648-740): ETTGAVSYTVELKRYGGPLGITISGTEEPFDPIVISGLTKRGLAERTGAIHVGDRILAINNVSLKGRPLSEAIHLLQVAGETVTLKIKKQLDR
Chain of Inadl_4, Q8NI35 (Q8NI35 547-651): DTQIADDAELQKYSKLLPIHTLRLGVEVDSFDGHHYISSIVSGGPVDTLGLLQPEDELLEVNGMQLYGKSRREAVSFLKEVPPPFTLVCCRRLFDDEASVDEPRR
Chain of LAP2, Q96RT1 (Q96RT1 other isoform, or with tags, fused parts or gaps): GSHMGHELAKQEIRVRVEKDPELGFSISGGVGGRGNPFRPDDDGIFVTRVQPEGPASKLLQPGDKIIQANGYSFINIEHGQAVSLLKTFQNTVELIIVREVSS
Chain of TJP2_1, Q9UDY2 (Q9UDY2 24-128): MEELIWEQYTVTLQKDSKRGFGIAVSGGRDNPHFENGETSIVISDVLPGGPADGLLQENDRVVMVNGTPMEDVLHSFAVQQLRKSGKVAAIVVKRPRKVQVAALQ
Chain of Inadl_8, Q8NI35 (Q8NI35 1425-1530): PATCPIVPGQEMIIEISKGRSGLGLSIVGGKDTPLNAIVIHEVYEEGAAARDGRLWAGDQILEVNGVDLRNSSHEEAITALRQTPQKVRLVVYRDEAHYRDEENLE
Chain of DLG1_3, Q12959 (Q12959 457-571): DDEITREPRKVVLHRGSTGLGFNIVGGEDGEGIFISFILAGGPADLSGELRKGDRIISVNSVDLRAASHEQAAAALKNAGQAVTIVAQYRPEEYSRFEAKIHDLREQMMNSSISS
Chain of CASK, O14936 (O14936 487-570): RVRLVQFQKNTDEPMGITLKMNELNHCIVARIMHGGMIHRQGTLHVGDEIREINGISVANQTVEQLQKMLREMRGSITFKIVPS

NLNSSRVPDLLV [SARS-CoV2-E, P0DTC4]
pKd [1, 28]: below the threshold
pKd [2, 28]: below the threshold
pKd [3, 28]: below the threshold
pKd [4, 28]: below the threshold
pKd [5, 28]: below the threshold
pKd [6, 28]: below the threshold
pKd [7, 28]: below the threshold
pKd [8, 28]: below the threshold
pKd [9, 28]: below the threshold
pKd [10, 28]: below the threshold
pKd [11, 28]: below the threshold
pKd [12, 28]: below the threshold
pKd [13, 28]: below the threshold
pKd [14, 28]: below the threshold
pKd [15, 28]: below the threshold
pKd [16, 28]: below the threshold
pKd [17, 28]: below the threshold
pKd [18, 28]: below the threshold
pKd [19, 28]: below the threshold
pKd [20, 28]: below the threshold
pKd [21, 28]: below the threshold
pKd [22, 28]: below the threshold
pKd [23, 28]: below the threshold
pKd [24, 28]: below the threshold
pKd [25, 28]: below the threshold
pKd [26, 28]: below the threshold
pKd [27, 28]: below the threshold

VSVDDVRSTSQGLSSY [DFNB31_int, Q9P202]
pKd [1, 29]: 3.7
pKd [2, 29]: below the threshold
pKd [3, 29]: below the threshold
pKd [4, 29]: below the threshold
pKd [5, 29]: below the threshold
pKd [6, 29]: below the threshold
pKd [7, 29]: below the threshold
pKd [8, 29]: below the threshold
pKd [9, 29]: below the threshold
pKd [10, 29]: below the threshold
pKd [11, 29]: below the threshold
pKd [12, 29]: below the threshold
pKd [13, 29]: 3.8
pKd [14, 29]: below the threshold
pKd [15, 29]: below the threshold
pKd [16, 29]: below the threshold
pKd [17, 29]: below the threshold
pKd [18, 29]: below the threshold
pKd [19, 29]: below the threshold
pKd [20, 29]: below the threshold
pKd [21, 29]: below the threshold
pKd [22, 29]: below the threshold
pKd [23, 29]: below the threshold
pKd [24, 29]: below the threshold
pKd [25, 29]: below the threshold
pKd [26, 29]: below the threshold
pKd [27, 29]: below the threshold
